Assay results taken from paper PMC9780360, “A conformation-specific nanobody targeting the nicotinamide mononucleotide-activated state of SARM1” (Nature Communications, 2022).

T1: dtSARM1, the truncated form of SARM1 without the N-terminal mitochondrial signal, fused with a twin-Strep-tag … (human, UniProt Q6SZW1 28-724)
T1 chain: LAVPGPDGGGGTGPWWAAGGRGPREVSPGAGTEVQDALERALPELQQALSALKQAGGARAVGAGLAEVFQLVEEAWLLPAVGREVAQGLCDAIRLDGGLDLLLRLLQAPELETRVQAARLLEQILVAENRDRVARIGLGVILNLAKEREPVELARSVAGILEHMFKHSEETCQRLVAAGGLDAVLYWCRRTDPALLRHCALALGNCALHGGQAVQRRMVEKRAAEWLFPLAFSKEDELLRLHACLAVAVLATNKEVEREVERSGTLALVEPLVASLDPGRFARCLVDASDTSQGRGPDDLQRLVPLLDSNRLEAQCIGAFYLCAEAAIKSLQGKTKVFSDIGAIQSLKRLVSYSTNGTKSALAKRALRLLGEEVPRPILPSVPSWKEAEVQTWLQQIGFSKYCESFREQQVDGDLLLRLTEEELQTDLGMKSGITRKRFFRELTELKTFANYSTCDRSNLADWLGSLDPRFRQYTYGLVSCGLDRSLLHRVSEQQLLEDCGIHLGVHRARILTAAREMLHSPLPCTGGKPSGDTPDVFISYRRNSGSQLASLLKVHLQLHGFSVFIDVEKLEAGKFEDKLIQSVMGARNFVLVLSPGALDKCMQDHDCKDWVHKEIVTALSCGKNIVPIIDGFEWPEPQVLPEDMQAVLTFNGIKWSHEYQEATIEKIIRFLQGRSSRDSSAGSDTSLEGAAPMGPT


How the values were obtained:
[1] = biological target: the molecule itself; assay: cryo-EM structure; 3 mg/mL dtSARM1 with 100 uM NMN in 100 mM Tris pH 8.0, 150 mM NaCl, 1 mM EDTA on ice for 10 min, then Nb-C6 at 1:1 molar ratio, 30 min on ice
[2] = biological target: T2, dtSARM1, the truncated form of SARM1 without the N-terminal mitochondrial signal, fused with a twin-Strep-tag … (human, UniProt Q6SZW1); assay: as above; conditions: both partners purified
T2 construct: also called recombinant SARM1; SARM1^NMN (loaded with NMN); source: Expi293F stably expressing dtSARM1 (lentiviral); in lysate, or purified (StrepTactin resin, Superdex 200 gel filtration); not shown: twin-Strep, N-terminal, kept; Flag, N-terminal, kept

Nanobody C6 (alpaca) = assay: as above
[3] = biological target: T1, dtSARM1, the truncated form of SARM1 …; assay: SPR; 100 uM NMN, two-state fit kd2
[4] = biological target: T1, dtSARM1, the truncated form of SARM1 …; assay: SPR; 100 uM NMN, two-state fit kd1
[5] = biological target: T2, dtSARM1, the truncated form of SARM1 …; assay: SPR; BIAcore 8K; dtSARM1 captured (about 500 RU) on a CM5 chip coated with Strep-Tactin XT; Nb-C6 1.56-400 nM in NMN/HBS-EP (100 uM NMN, 10 mM HEPES, 150 mM NaCl, 1 mg/mL BSA, 3 mM EDTA, 0.05% P20); 360 s association, 540 s dissociation; two-state kinetics model; conditions: both partners purified

Binder | stoichiometry N [1] | stoichiometry N [2] | stoichiometry N (Nanobody C6 (alpaca)) | koff [3] | koff [4] | Kd [5]
dtSARM1, the truncated form of SARM1 without the N-terminal mitochondrial signal, fused with a twin-Strep-tag and a Flag-tag attached to the N-terminus (enzyme, human, UniProt Q6SZW1 28-724, looked up, also called recombinant SARM1; SARM1^NMN (loaded with NMN); source: Expi293F stably expressing dtSARM1 (lentiviral); in lysate, or purified (StrepTactin resin, Superdex 200 gel filtration); not shown: twin-Strep, N-terminal, kept; Flag, N-terminal, kept) LAVPGPDGGGGTGPWWAAGGRGPREVSPGAGTEVQDALERALPELQQALSALKQAGGARAVGAGLAEVFQLVEEAWLLPAVGREVAQGLCDAIRLDGGLDLLLRLLQAPELETRVQAARLLEQILVAENRDRVARIGLGVILNLAKEREPVELARSVAGILEHMFKHSEETCQRLVAAGGLDAVLYWCRRTDPALLRHCALALGNCALHGGQAVQRRMVEKRAAEWLFPLAFSKEDELLRLHACLAVAVLATNKEVEREVERSGTLALVEPLVASLDPGRFARCLVDASDTSQGRGPDDLQRLVPLLDSNRLEAQCIGAFYLCAEAAIKSLQGKTKVFSDIGAIQSLKRLVSYSTNGTKSALAKRALRLLGEEVPRPILPSVPSWKEAEVQTWLQQIGFSKYCESFREQQVDGDLLLRLTEEELQTDLGMKSGITRKRFFRELTELKTFANYSTCDRSNLADWLGSLDPRFRQYTYGLVSCGLDRSLLHRVSEQQLLEDCGIHLGVHRARILTAAREMLHSPLPCTGGKPSGDTPDVFISYRRNSGSQLASLLKVHLQLHGFSVFIDVEKLEAGKFEDKLIQSVMGARNFVLVLSPGALDKCMQDHDCKDWVHKEIVTALSCGKNIVPIIDGFEWPEPQVLPEDMQAVLTFNGIKWSHEYQEATIEKIIRFLQGRSSRDSSAGSDTSLEGAAPMGPT | 8 |  |  |  |  | 
Nanobody C6 (VHH, Subcloned into pET22b; alpaca nanobody from an immune phage display library; also called Nb-C6; source: E. coli C43(DE3), purified (Ni-Excel resin, HiTrap Q)) VHH: AVQLVESGGGLVQPGGSLRLSCAASVSISRIYVMAWYRQAPGKQREVVAVIRYDGTTNYPDSVKGRFTISRDNAKNTVYLQMNSLKPEDTAVYYCNANVETWGQGTQVTVSS |  | 1 | 2 | 0.000601 s⁻¹ | 0.0209 s⁻¹ | ~25 nM
